Data on six molecules can be found in patent US20140187615, “THERAPEUTIC POLYNUCLEOTIDES, COMPOSITIONS, AND METHODS” (Regents of the University of Minnesota, published 2014).

Data set [1] deals with T1, phospholamban (PLN), pentameric (UniProt P61015).
T1 sequence: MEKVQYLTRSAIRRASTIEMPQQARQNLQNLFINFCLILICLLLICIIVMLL
The data set is described as follows: FP. As to conditions: ACE Kd 0.5 ± 0.1 nM; also gel shift (FIG. 1C); MOPS, 0.1% C12E8, 1 mM MgCl2, 5 mM CaCl2, pH 7.0. (Mobility shift assays separate free from complexed probe on a gel.)

Data set [2] has as its target T2, phospholamban (PLN), pentameric (UniProt P61015 P61015:1-52).
T2 sequence: T1 sequence
Put plainly: FP; ACE Kd 1.2 ± 0.4 nM; MOPS, 0.1% C12E8, 1 mM MgCl2, 5 mM CaCl2, pH 7.0. The settings on record: chain copies: 5 (stated pentameric); label: 5'-FAM.

Data set [3] concerns the target T2, phospholamban (PLN), pentameric. The data set is described as follows: FP; ACE Kd 6.5 ± 0.9 nM; MOPS, 0.1% C12E8, 1 mM MgCl2, 5 mM CaCl2, pH 7.0. As to conditions: chain copies: 5 (stated pentameric); label: 5'-FAM.
Data set [4] shares this target. The data set is described as follows: FP; ACE Kd 80 ± 40 nM; MOPS, 0.1% C12E8, 1 mM MgCl2, 5 mM CaCl2, pH 7.0. The settings on record: chain copies: 5 (stated pentameric); label: 5'-FAM.
The target is the same in data set [5]. Put plainly: FP; ACE Kd 24 ± 5 nM; MOPS, 0.1% C12E8, 1 mM MgCl2, 5 mM CaCl2, pH 7.0. The settings on record: chain copies: 5 (stated pentameric); label: 5'-FAM.
Data set [6] has the same target. Put plainly: FP; ACE Kd 260 ± 180 nM; MOPS, 0.1% C12E8, 1 mM MgCl2, 5 mM CaCl2, pH 7.0. As to conditions: chain copies: 5 (stated pentameric); label: 5'-FAM.

With “NNNNNNNNNNNNNNNNNNNNNNNNNNNNNNNNNNNNNNNNNNNNNNNNNNNNNNNNNNNNNNNNNNNNNNNNNNNNNNNN [ssDNA random 80-mer]”, the equilibrium dissociation constant (Kd) (in general, the free concentration of one partner at which half of the binding sites on the other are occupied at equilibrium, for simple one-to-one binding) in data set [1] was found to be 3.1 nM.

B1: ssDNA 50-mer (ssDNA)
DNA: AGCAGCACAGAGGTCAGATGCAGGTAGGGTCCTATGCGTGCTACCGTGAA
Take B1: in data set [2], the Kd was found to be 5 nM.

B2: ssDNA 20-mer (ssDNA)
DNA: AGCAGCACAGAGGTCAGATG
The molecule B2 gave a Kd in data set [3] of 1.8 nM.

B3: ssDNA 15-mer (ssDNA)
DNA: AGTGATAGCTATGGT
B3 registered a Kd in data set [4] of 3.1 nM.

B4: ssDNA 30-mer (ssDNA)
DNA: ACTGAGCATGGGATAACCGTTCTCAGACTT
Consider B4, for which the Kd in data set [5] was determined as 21 nM.

B5: ssDNA 10-mer (ssDNA)
DNA: ATAGCTTGCA
As to B5, in data set [6], the Kd worked out at 35 nM.
